Key:
[1] = biological target: HLA-B*44:03; experiment: IEDB peptide-MHC binding, purified MHC/competitive/radioactivity; filed as Kd, often an IC50 or EC50 that approximates it; ≥ and ≤ were set here for values at or beyond the usual limits of such assays
[2] = biological target: HLA-B*18:01; experiment: as above
[3] = biological target: HLA-B*40:02; experiment: as above
[4] = biological target: HLA-B*44:02; experiment: as above
[5] = biological target: HLA-B*40:01; experiment: as above
[6] = biological target: HLA-B*45:01; experiment: as above
[7] = biological target: HLA-A*02:01; experiment: as above
[8] = biological target: HLA-A*02:17; experiment: as above
[9] = biological target: HLA-A*24:02; experiment: IEDB peptide-MHC binding, purified MHC/competitive/fluorescence; ≥ and ≤ were set here for values at or beyond the usual limits of such assays; conditions: source organism: Sudan ebolavirus
[10] = biological target: HLA-A*02:11; experiment: IEDB peptide-MHC binding, purified MHC/direct/fluorescence; filed as Kd, often an IC50 or EC50 that approximates it; ≥ and ≤ were set here for values at or beyond the usual limits of such assays; conditions: source organism: Zaire ebolavirus
[11] = biological target: HLA-A*02:12; experiment: as above; conditions: source organism: Zaire ebolavirus
[12] = biological target: HLA-A*02:03; experiment: as above; conditions: source organism: Zaire ebolavirus
[13] = biological target: HLA-A*68:02; experiment: as above; conditions: source organism: Zaire ebolavirus
[14] = biological target: HLA-A*24:03; experiment: as above; conditions: source organism: Zaire ebolavirus
[15] = biological target: HLA-A*02:16; experiment: as above; conditions: source organism: Zaire ebolavirus
[16] = biological target: HLA-A*02:19; experiment: as above; conditions: source organism: Zaire ebolavirus
[17] = biological target: HLA-A*03:01; experiment: as above; conditions: source organism: Zaire ebolavirus
[18] = biological target: HLA-A*29:02; experiment: as above; conditions: source organism: Zaire ebolavirus
[19] = biological target: HLA-B*18:01; experiment: IEDB peptide-MHC binding, purified MHC/competitive/fluorescence; filed as Kd, often an IC50 or EC50 that approximates it; ≥ and ≤ were set here for values at or beyond the usual limits of such assays
[20] = biological target: HLA-A*69:01; experiment: as above; conditions: source organism: Zaire ebolavirus
[21] = biological target: HLA-B*15:17; experiment: as above; conditions: source organism: Zaire ebolavirus
[22] = biological target: HLA-A*26:01; experiment: as above
[23] = biological target: HLA-B*51:01; experiment: as above; conditions: source organism: Zaire ebolavirus
[24] = biological target: HLA-B*39:01; experiment: as above; conditions: source organism: Zaire ebolavirus
[25] = biological target: HLA-B*15:01; experiment: as above
[26] = biological target: HLA-B*46:01; experiment: as above
[27] = biological target: HLA-B*27:03; experiment: as above
[28] = biological target: HLA-A*02:01; experiment: as above
[29] = biological target: HLA-B*57:01; experiment: as above
[30] = biological target: HLA-A*24:03; experiment: as above
[31] = biological target: HLA-A*03:01; experiment: as above; conditions: source organism: Homo sapiens
[32] = biological target: HLA-A*24:02; experiment: IEDB peptide-MHC binding, purified MHC/competitive/radioactivity; filed as Kd, often an IC50 or EC50 that approximates it; ≥ and ≤ were set here for values at or beyond the usual limits of such assays; conditions: source organism: Lassa virus Josiah
[33] = biological target: HLA-A*23:01; experiment: as above; conditions: source organism: Lassa virus Josiah
[34] = biological target: HLA-A*29:02; experiment: as above; conditions: source organism: Lassa virus Josiah
[35] = biological target: HLA-A*68:02; experiment: IEDB peptide-MHC binding, purified MHC/competitive/fluorescence; filed as Kd, often an IC50 or EC50 that approximates it; ≥ and ≤ were set here for values at or beyond the usual limits of such assays
[36] = biological target: HLA-B*40:01; experiment: IEDB peptide-MHC binding, purified MHC/direct/fluorescence; filed as Kd, often an IC50 or EC50 that approximates it; ≥ and ≤ were set here for values at or beyond the usual limits of such assays; conditions: source organism: Reston ebolavirus - Reston
[37] = source organism: SARS coronavirus Tor2
[38] = source organism: Dengue virus 2 Jamaica/1409/1983
[39] = source organism: Lymphocytic choriomeningitis virus (strain Armstrong)
[40] = source organism: Mammarenavirus machupoense
[41] = source organism: Zaire ebolavirus
[42] = source organism: Lymphocytic choriomeningitis virus (strain WE)
[43] = source organism: Mammarenavirus juninense
[44] = source organism: Dengue virus 4 Philippines/H241/1956
[45] = source organism: Mammarenavirus brazilense
[46] = source organism: Lassa virus Josiah

SETLLPLTQY
Kd [1, 37]: 33.2 nM | Kd [2, 37]: 66.5 nM | Kd [3, 37]: 1880 nM | Kd [4, 37]: 52.1 nM | Kd [5, 37]: 13100 nM | Kd [6, 37]: 1750 nM

SEVGICLST
Kd [1, 37]: 20.4 nM | Kd [2, 37]: 4510 nM | Kd [3, 37]: 10.6 nM | Kd [4, 37]: 120 nM | Kd [5, 37]: 241 nM | Kd [6, 37]: 8.52 nM

KMEKASFIEV
Kd [7, 38]: 143 nM | Kd [8, 38]: 1860 nM

REAVESCPL
Kd [1, 39]: 13200 nM | Kd [2, 39]: 10300 nM | Kd [3, 39]: 58.7 nM | Kd [4, 39]: 5840 nM | Kd [5, 39]: 11100 nM | Kd [6, 39]: ≥ 60800 nM

EEVLDVCPL
Kd [1, 40]: 5440 nM | Kd [2, 40]: 368 nM | Kd [3, 40]: 85.2 nM | Kd [4, 40]: 13700 nM | Kd [5, 40]: 70.2 nM | Kd [6, 40]: 2480 nM

EWAENCYNL
IC50 [9]: 6480 nM | Kd [10]: ≥ 20000 nM | Kd [11]: ≥ 20000 nM | Kd [12]: ≥ 20000 nM | Kd [13]: ≥ 20000 nM | Kd [14]: ≥ 20000 nM | Kd [15]: ≥ 20000 nM | Kd [16]: ≥ 20000 nM | Kd [17]: ≥ 20000 nM | Kd [18]: ≥ 20000 nM | Kd [19, 41]: ≥ 20000 nM | Kd [20]: ≥ 20000 nM | Kd [21]: ≥ 20000 nM | Kd [22, 41]: ≥ 20000 nM | Kd [23]: ≥ 20000 nM | Kd [24]: ≥ 20000 nM | Kd [25, 41]: ≥ 20000 nM | Kd [26, 41]: ≥ 20000 nM | Kd [27, 41]: ≥ 20000 nM | Kd [28, 41]: ≥ 20000 nM | Kd [29, 41]: ≥ 20000 nM

LDVLCPSSL
Kd [1, 42]: ≥ 78100 nM | Kd [2, 42]: ≥ 77500 nM | Kd [3, 42]: 487 nM | Kd [4, 42]: ≥ 22200 nM | Kd [5, 42]: ≥ 23600 nM | Kd [6, 42]: ≥ 77700 nM

PFGQWDQTF
Kd ([30]; source organism: Yersinia pestis Antiqua): 209 nM

WLGHPFTPV
Kd ([19]; source organism: Homo sapiens): ≥ 20000 nM | Kd ([30]; source organism: Homo sapiens): ≥ 20000 nM | Kd ([22]; source organism: Homo sapiens): ≥ 20000 nM | Kd ([25]; source organism: Homo sapiens): ≥ 20000 nM | Kd ([26]; source organism: Homo sapiens): ≥ 20000 nM | Kd ([27]; source organism: Homo sapiens): ≥ 20000 nM | Kd ([28]; source organism: Homo sapiens): 0.3 nM | Kd [31]: ≥ 20000 nM | Kd ([29]; source organism: Homo sapiens): ≥ 20000 nM

SDTQIPGVC
Kd [1, 43]: ≥ 78100 nM | Kd [2, 43]: ≥ 77500 nM | Kd [3, 43]: 12200 nM | Kd [4, 43]: ≥ 56200 nM | Kd [5, 43]: ≥ 65600 nM | Kd [6, 43]: ≥ 51000 nM

SEAFEYYHTL
Kd [1, 37]: 18.4 nM | Kd [2, 37]: 2140 nM | Kd [3, 37]: 6.54 nM | Kd [4, 37]: 10.5 nM | Kd [5, 37]: 1.18 nM | Kd [6, 37]: 60.4 nM

QEYADVFHLY
Kd [1, 37]: 6.61 nM | Kd [2, 37]: 147 nM | Kd [3, 37]: 110 nM | Kd [4, 37]: 11.9 nM | Kd [5, 37]: 553 nM | Kd [6, 37]: 608 nM

LMLVALLGA
Kd [7, 44]: 10400 nM | Kd [8, 44]: 2920 nM

AENGELTEI
Kd [1, 45]: 319 nM | Kd [2, 45]: ≥ 77500 nM | Kd [3, 45]: 47.8 nM | Kd [4, 45]: 181 nM | Kd [5, 45]: 2030 nM | Kd [6, 45]: 74 nM

YDHALMSII
Kd [1, 46]: ≥ 33400 nM | Kd [2, 46]: ≥ 25400 nM | Kd [3, 46]: 49.5 nM | Kd [32]: ≥ 30800 nM | Kd [4, 46]: 7050 nM | Kd [5, 46]: ≥ 26600 nM | Kd [33]: 7730 nM | Kd [6, 46]: ≥ 68600 nM | Kd [34]: ≥ 46600 nM

NCADHFEGV
Kd ([35]; source organism: Escherichia coli HS): 1.5 nM

DETKKQVNLM
Kd [1, 43]: ≥ 70100 nM | Kd [2, 43]: 9010 nM | Kd [3, 43]: ≥ 70800 nM | Kd [4, 43]: ≥ 64600 nM | Kd [5, 43]: 14600 nM | Kd [6, 43]: ≥ 33100 nM

SFYYIWKSYV
Kd [1, 37]: 319 nM | Kd [2, 37]: ≥ 70500 nM | Kd [3, 37]: 2320 nM | Kd [4, 37]: 415 nM | Kd [5, 37]: 1150 nM | Kd [6, 37]: 1150 nM

FEEAALCTFL
Kd [1, 37]: 45.9 nM | Kd [2, 37]: 477 nM | Kd [3, 37]: 14 nM | Kd [4, 37]: 96.2 nM | Kd [5, 37]: 1.98 nM | Kd [6, 37]: 163 nM

DEMVCKWLL
Kd [10]: ≥ 20000 nM | Kd [11]: ≥ 20000 nM | Kd [12]: ≥ 20000 nM | Kd [13]: ≥ 20000 nM | Kd [14]: ≥ 20000 nM | Kd [15]: ≥ 20000 nM | Kd [16]: ≥ 20000 nM | Kd [36]: 387 nM | Kd [17]: ≥ 20000 nM | Kd [18]: ≥ 20000 nM | Kd [21]: ≥ 20000 nM | Kd [22, 41]: ≥ 20000 nM | Kd [23]: ≥ 20000 nM | Kd [24]: ≥ 20000 nM | Kd [25, 41]: ≥ 20000 nM | Kd [26, 41]: ≥ 20000 nM | Kd [27, 41]: ≥ 20000 nM | Kd [28, 41]: ≥ 20000 nM | Kd [29, 41]: ≥ 20000 nM

ELWDPSTEA
Kd ([35]; source organism: Burkholderia mallei NCTC 10229): 78.1 nM

REFVFKNKDG
Kd [1, 37]: 515 nM | Kd [2, 37]: ≥ 70500 nM | Kd [3, 37]: 11500 nM | Kd [4, 37]: 11500 nM | Kd [5, 37]: 156 nM | Kd [6, 37]: 5420 nM

— the Immune Epitope Database (IEDB)
